The values that follow come from patent US20060160994A1.

Experiment [1] deals with low density lipoprotein receptor-related protein (LRP), purified and immobilized (UniProt Q07954). In words: SPR, LRP immobilized (8.3 fmol/mm^2), analyte 100 nM, corrected for nonspecific binding. In general terms: Surface plasmon resonance follows binding to a sensor surface in real time, without labels.
In experiment [2] the target is LRP exposed on the surface of mouse fibroblast (C127) cells (mouse (mouse fibroblast cells)) (UniProt Q91ZX7). In words: cell-based or functional assay.
LRP exposed on the surface of mouse fibroblast (C127) cells (mouse (mouse fibroblast cells)), sequence (Q91ZX7 20-4545): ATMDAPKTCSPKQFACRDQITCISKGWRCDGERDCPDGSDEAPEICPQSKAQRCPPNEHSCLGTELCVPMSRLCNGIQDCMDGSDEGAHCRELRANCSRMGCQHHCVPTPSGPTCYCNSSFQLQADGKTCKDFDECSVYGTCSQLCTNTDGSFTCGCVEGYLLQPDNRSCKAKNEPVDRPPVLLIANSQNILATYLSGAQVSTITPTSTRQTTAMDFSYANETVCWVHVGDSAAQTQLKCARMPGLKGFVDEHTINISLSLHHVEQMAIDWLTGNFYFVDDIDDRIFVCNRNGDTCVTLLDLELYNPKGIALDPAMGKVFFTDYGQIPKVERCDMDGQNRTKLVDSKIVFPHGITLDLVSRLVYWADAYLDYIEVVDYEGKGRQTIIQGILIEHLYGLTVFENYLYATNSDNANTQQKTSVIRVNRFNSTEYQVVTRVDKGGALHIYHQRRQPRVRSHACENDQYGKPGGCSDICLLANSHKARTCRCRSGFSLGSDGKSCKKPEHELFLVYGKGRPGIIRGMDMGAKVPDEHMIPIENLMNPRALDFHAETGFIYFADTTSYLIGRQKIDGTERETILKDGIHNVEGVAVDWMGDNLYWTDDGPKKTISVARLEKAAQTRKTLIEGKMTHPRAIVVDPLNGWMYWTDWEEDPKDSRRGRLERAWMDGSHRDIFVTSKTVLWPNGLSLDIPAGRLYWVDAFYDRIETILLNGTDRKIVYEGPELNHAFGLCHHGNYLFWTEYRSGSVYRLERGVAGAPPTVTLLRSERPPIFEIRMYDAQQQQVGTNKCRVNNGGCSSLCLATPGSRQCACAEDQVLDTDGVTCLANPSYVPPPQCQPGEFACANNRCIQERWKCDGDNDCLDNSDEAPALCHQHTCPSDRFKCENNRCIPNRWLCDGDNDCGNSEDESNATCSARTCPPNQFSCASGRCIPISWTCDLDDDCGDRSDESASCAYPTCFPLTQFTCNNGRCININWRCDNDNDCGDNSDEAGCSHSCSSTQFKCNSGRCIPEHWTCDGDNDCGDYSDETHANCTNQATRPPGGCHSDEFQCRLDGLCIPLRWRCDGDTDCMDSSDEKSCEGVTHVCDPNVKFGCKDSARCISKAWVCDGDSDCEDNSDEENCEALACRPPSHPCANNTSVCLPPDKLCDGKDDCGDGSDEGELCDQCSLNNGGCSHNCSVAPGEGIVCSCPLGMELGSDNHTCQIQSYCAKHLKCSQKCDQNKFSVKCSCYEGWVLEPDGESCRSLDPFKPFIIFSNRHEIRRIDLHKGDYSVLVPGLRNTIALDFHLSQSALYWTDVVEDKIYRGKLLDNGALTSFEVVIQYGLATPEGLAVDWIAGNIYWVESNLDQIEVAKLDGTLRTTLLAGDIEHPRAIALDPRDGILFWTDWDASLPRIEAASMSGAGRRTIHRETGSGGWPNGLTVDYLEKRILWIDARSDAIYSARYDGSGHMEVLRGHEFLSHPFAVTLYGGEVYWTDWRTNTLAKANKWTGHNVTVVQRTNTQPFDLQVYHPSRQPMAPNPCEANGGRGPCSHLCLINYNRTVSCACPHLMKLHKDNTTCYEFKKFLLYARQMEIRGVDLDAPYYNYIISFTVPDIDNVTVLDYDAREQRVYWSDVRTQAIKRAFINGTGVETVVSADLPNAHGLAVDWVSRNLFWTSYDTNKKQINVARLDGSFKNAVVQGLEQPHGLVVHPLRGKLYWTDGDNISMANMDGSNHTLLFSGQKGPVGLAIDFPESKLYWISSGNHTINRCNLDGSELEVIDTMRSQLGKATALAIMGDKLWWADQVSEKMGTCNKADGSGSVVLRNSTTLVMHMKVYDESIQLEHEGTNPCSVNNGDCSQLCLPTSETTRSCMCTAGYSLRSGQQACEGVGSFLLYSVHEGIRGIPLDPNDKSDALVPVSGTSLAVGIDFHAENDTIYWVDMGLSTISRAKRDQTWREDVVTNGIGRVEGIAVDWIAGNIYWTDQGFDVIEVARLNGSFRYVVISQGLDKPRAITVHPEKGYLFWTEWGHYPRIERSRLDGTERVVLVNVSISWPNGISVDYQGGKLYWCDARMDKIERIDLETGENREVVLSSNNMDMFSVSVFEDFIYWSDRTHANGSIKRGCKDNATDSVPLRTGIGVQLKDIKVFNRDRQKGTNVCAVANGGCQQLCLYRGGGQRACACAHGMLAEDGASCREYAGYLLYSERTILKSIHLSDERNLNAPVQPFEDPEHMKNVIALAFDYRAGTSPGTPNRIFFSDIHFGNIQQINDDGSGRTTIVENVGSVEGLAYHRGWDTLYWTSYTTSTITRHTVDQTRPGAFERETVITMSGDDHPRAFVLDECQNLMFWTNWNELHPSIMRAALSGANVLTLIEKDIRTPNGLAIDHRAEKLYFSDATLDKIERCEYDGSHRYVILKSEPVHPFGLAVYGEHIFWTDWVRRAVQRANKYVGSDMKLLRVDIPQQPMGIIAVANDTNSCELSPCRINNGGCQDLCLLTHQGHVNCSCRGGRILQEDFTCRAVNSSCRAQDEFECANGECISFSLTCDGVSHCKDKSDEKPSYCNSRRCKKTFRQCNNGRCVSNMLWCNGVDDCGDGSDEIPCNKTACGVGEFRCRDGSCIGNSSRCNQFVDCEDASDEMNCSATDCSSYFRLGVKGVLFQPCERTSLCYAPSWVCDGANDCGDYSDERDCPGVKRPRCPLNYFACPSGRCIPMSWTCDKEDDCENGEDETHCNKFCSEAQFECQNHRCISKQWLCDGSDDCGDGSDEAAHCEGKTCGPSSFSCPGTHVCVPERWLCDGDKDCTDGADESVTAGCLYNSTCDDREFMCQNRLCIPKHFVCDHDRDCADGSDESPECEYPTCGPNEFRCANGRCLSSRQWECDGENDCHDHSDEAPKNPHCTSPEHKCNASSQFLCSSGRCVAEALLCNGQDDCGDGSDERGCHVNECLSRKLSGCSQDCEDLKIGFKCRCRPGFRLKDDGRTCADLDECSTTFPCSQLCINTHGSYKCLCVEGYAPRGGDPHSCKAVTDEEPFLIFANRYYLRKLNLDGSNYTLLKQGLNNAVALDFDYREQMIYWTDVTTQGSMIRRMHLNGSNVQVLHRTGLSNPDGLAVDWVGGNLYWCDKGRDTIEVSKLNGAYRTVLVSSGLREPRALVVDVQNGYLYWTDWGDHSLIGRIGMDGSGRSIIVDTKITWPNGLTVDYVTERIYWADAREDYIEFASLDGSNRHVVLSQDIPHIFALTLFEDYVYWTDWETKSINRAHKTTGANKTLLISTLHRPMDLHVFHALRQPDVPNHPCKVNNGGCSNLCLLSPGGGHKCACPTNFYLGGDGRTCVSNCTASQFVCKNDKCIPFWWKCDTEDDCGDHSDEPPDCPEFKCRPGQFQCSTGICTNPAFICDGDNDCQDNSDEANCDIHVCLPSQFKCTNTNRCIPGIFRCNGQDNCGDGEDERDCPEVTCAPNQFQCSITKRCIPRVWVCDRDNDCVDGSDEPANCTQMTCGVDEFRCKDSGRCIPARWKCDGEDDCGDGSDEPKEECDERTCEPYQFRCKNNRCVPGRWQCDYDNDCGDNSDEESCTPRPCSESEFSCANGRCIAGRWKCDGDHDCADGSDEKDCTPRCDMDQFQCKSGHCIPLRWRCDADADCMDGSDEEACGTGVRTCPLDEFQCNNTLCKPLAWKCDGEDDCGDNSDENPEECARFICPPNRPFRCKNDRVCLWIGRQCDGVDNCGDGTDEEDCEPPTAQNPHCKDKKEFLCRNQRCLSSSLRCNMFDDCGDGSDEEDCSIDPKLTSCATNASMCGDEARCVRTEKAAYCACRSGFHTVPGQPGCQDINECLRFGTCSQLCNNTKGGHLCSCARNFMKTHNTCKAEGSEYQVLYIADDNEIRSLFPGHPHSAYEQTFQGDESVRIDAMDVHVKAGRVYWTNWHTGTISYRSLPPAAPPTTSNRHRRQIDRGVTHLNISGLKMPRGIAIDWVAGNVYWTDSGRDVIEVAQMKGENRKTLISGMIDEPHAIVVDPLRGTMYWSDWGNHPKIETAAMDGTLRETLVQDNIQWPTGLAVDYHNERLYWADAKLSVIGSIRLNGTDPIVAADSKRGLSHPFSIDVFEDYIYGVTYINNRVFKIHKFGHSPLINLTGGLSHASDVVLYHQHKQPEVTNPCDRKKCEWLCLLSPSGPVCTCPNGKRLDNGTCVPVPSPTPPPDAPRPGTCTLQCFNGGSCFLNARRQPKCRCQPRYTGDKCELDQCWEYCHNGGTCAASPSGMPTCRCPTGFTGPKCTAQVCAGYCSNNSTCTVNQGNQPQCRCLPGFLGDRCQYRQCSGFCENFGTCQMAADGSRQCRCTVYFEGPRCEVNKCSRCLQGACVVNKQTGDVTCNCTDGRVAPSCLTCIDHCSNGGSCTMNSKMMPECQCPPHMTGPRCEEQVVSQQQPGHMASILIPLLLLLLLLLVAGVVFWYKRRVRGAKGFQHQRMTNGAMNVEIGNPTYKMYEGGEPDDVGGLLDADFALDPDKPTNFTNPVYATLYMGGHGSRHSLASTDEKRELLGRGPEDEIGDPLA

Regarding “Factor VIII, P00451 20-1667; P00451 1668-2351”, the Binding (resonance units) (resonance units) in experiment [1] stood at 262.

“normal Factor VIII (produced by stably transfected mouse fibroblast C127 cells) (from UniProt P00451 20-2351)”: in experiment [2], the Ratio +RAP/-RAP of Factor VIII expression (U/L) in medium of C127 cells, 2 h turned out to be 3.2 and the Ratio +RAP/-RAP of Factor VIII expression (U/L) in medium of C127 cells, 3 h came out at 2.3.

In experiment [1], “thrombin-activated Factor VIII (from UniProt P00451 20-391; P00451 392-759; P00451 1709-2351)” yielded a Binding (resonance units) (resonance units) of 446.

“heavy chain of Factor VIII (from UniProt P00451 20-1667)” came in with a Binding (resonance units) (resonance units) in experiment [1] of 0.
